T1: cynomolgus monkey FcγRIIb extracellular domain, His-tagged (cynomolgus monkey)
T1 construct: also called cyno FcγRIIb; cynoFcγRIIb
T1 chain: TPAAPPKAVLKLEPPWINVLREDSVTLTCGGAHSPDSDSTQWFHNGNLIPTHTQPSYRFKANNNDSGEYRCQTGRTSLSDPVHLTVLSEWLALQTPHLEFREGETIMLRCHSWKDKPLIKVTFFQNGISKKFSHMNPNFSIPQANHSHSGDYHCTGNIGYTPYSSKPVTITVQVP

T2: human FcγRIIaR extracellular domain, C-terminal His-tag (human, UniProt P12318 34-217)
T2 construct: also called human FcγRIIa (type R); FcgRIIaR; not shown: His-tag added to C-terminus
T2 chain: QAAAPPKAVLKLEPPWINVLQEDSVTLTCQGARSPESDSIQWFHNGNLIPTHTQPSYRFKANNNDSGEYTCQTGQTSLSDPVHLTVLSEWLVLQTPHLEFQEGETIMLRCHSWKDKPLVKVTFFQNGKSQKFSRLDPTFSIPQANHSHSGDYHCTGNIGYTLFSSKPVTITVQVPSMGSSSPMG

T3: cynomolgus monkey FcγRIIa2 extracellular domain, C-terminal His-tag (cynomolgus monkey)
T3 construct: also called cyno FcγRIIa2; cynoFcgRIIa2; not shown: His-tag added to C-terminus
T3 chain: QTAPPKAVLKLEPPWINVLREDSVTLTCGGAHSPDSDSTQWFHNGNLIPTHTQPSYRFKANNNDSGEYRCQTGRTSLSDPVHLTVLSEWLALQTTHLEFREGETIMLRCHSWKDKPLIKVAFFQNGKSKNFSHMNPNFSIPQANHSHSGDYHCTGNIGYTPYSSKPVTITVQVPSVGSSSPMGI

T4: cynomolgus monkey FcγRIIb extracellular domain, C-terminal His-tag (cynomolgus monkey)
T4 construct: also called cyno FcγRIIb; cynoFcγRIIb; not shown: His-tag added to C-terminus
T4 chain: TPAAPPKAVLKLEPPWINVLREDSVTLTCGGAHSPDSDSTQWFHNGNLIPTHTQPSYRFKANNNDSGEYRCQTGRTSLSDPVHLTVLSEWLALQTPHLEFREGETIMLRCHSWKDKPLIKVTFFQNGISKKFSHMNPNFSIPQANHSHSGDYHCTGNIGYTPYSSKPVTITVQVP

T5: human FcγRIIb extracellular domain, C-terminal His-tag (human, UniProt P31994 43-217)
T5 construct: also called FcgRIIb (human); not shown: His-tag added to C-terminus
T5 sequence: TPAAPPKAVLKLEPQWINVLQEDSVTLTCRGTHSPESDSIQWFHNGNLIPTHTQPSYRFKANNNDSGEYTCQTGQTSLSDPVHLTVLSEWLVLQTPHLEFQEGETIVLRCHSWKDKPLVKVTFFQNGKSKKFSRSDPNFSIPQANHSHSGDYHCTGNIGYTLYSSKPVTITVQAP

T6: human FcγRIIaH extracellular domain, C-terminal His-tag (human, UniProt P12318 34-217)
T6 construct: also called human FcγRIIa (type H); FcgRIIaH; not shown: His-tag added to C-terminus
T6 sequence: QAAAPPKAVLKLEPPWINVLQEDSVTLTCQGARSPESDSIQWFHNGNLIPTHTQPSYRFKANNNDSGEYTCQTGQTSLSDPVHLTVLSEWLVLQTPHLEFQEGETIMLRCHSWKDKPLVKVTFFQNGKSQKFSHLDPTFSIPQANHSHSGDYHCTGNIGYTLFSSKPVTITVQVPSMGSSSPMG

T7: cynomolgus monkey FcγRIIa1 extracellular domain, C-terminal His-tag (cynomolgus monkey)
T7 construct: also called cyno FcγRIIa1; cynoFcgRIIa1; not shown: His-tag added to C-terminus
T7 chain: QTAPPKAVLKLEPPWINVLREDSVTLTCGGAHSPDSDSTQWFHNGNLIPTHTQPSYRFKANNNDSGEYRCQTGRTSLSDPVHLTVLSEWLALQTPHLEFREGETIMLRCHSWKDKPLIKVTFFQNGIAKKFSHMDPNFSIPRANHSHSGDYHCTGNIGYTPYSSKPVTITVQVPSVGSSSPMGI


Legend:
[1] = target: T1, cynomolgus monkey FcγRIIb extracellular …; assay: SPR, antibody captured, FcgR analyte
[2] = target: T2, human FcγRIIaR extracellular domain, …; assay: SPR (Biacore), KD of SG1 / KD of variant;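 further: relative to parent M103205H795-SG1 carrying the SG1 human heavy chain constant region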
Procedure: (§1) The kinetic analysis of interactions between these antibodies and FcγR was carried out using BIACORE® T200 or BIACORE® 4000 (GE Healthcare). HBS-EP+ (GE Healthcare) was used as the running buffer, and the measurement temperature was set to 25° C. A chip produced by immobilizing Protein A. Protein A/G or mouse anti-human IgG kappa light chain (BD Biosciences) onto a Series S Sensor Chip CM4 or CM5 (GE Healthcare) by the amine-coupling method was used. […] After the measurement, the antibody captured on the chip was washed off by allowing reaction with 10 mM glycine-HCl, pH1.5 and 25 mM NaOH so that the chip was regenerated and used repeatedly. The sensorgrams obtained as measurement results were analyzed by the 1:1 Langmuir binding model using the BIACORE® Evaluation Software to calculate the binding rate constant ka (L/mol/s) and dissociation rate constant kd (l/s), and the dissociation constant KD (mol/L) was calculated from these values. […] Regarding such interactions, KD values were calculated using the following 1:1 binding model described in BIACORE® T100 Software Handbook BR1006-48 Edition AE.
(§2) The behavior of interacting molecules according to the 1:1 binding model on BIACORE® can be described by Equation 1: Req=C·R max/(KD+C)+RI, wherein, Req is a plot of steady-state binding levels to analyte concentration. C is concentration, RI is bulk refractive index contribution in the sample, and Rmax is analyte binding capacity of the surface. When this equation is rearranged, KD can be expressed as Equation 2: KD=C·Rmax/(Req−RI)−C. KD can be calculated by substituting the values of Rmax, RI, and C into Equation 1 or Equation 2. From the current measurement conditions, RI=0, C=2 μmol/L can be used.

[3] = target: T3, cynomolgus monkey FcγRIIa2 …; assay: SPR (Biacore), KD of SG1 / KD of variant;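 further: relative to parent M103205H795-SG1 carrying the SG1 human heavy chain constant region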
Procedure: as §1, §2

[4] = target: T8, cynomolgus monkey FcγRIIIaS extracellular domain, C-terminal His-tag (cynomolgus monkey, UniProt A3RFZ7 21-206 (rhesus entry)); assay: SPR (Biacore), KD of SG1 / KD of variant;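 further: relative to parent M103205H795-SG1 carrying the SG1 human heavy chain constant region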
T8 construct: also called cyno FcγRIIIaS; cynoFcγRIIIaS; not shown: His-tag added to C-terminus
T8 sequence (A3RFZ7 21-206): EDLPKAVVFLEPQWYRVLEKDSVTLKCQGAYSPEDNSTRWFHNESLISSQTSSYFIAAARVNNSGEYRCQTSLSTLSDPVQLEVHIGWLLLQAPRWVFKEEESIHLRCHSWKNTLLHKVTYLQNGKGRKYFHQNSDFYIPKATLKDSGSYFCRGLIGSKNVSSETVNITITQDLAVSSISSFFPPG
Procedure: as §1, §2

[5] = target: T4, cynomolgus monkey FcγRIIb extracellular …; assay: SPR (Biacore), KD of SG1 / KD of variant;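 further: relative to parent M103205H795-SG1 carrying the SG1 human heavy chain constant region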
Procedure: as §1, §2

[6] = target: T5, human FcγRIIb extracellular domain, …; assay: SPR (Biacore), KD of SG1 / KD of variant
Procedure: as §1, §2

[7] = target: T6, human FcγRIIaH extracellular domain, …; assay: SPR (Biacore), KD of SG1 / KD of variant
Procedure: as §1, §2

[8] = target: T9, human FcγRIIIaV extracellular domain, C-terminal His-tag (human, UniProt P08637 17-208); assay: SPR (Biacore), KD of SG1 / KD of variant
T9 construct: also called FcgRIIIaV; not shown: His-tag added to C-terminus
T9 sequence (P08637 17-208 F176V): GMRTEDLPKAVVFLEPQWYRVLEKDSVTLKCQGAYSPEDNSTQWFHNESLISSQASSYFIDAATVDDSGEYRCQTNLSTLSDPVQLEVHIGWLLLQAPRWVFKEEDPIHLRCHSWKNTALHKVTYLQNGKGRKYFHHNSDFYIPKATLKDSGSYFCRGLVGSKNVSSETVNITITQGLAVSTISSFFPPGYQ
Procedure: as §1, §2

[9] = target: T7, cynomolgus monkey FcγRIIa1 …; assay: SPR (Biacore), KD of SG1 / KD of variant
Procedure: as §1, §2

Binder	Kd [1]	KD fold (SG1 = 1) [2]	KD fold (SG1 = 1) [3]	KD fold (SG1 = 1) [4]	KD fold (SG1 = 1) [5]	KD fold (SG1 = 1) [6]	KD fold (SG1 = 1) [7]	KD fold (SG1 = 1) [8]	KD fold (SG1 = 1) [9]
M103205H795-MY073/M103202L889-SK1 (antibody, human IgG1, kappa, Substitution put into M103205H795-SG1) heavy: not shown light: DIVMTQSPATLSLSPGERATLSCTSSQSVYHANWLSWFQQKPGQPPKLLIYWASTLAYGVPSRFSGSGSGTDFTLTISSLQPEDAATYYCAGGYGGGRYAFGQGTKVEIKRTVAAPSVFIFPPSDEQLKSGTASVVCLLNNFYPREAKVQWKVDNALQSGNSQESVTEQDSKDSTYSLSSTLTLSKADYEKHKVYACEVTHQGLSSPVTKSFNRGEC	670 nM								
MS_M103205H795-SG1/M103202L889-SK1 (antibody, human IgG1, kappa, Parent antibody; also called MS1032LO06-SG1) heavy: not shown light: DIVMTQSPATLSLSPGERATLSCTSSQSVYHANWLSWFQQKPGQPPKLLIYWASTLAYGVPSRFSGSGSGTDFTLTISSLQPEDAATYYCAGGYGGGRYAFGQGTKVEIKRTVAAPSVFIFPPSDEQLKSGTASVVCLLNNFYPREAKVQWKVDNALQSGNSQESVTEQDSKDSTYSLSSTLTLSKADYEKHKVYACEVTHQGLSSPVTKSFNRGEC		1 fold	1 fold	1 fold	1 fold	1 fold	1 fold	1 fold	1 fold
M103205H795-MY196/M103202L889-SK1 (antibody, human IgG1, kappa, Substitution put into M103205H795-SG1) heavy: not shown light: DIVMTQSPATLSLSPGERATLSCTSSQSVYHANWLSWFQQKPGQPPKLLIYWASTLAYGVPSRFSGSGSGTDFTLTISSLQPEDAATYYCAGGYGGGRYAFGQGTKVEIKRTVAAPSVFIFPPSDEQLKSGTASVVCLLNNFYPREAKVQWKVDNALQSGNSQESVTEQDSKDSTYSLSSTLTLSKADYEKHKVYACEVTHQGLSSPVTKSFNRGEC	2400 nM								
M103205H795-MY124/M103202L889-SK1 (antibody, human IgG1, kappa, Substitution put into M103205H795-SG1) heavy: not shown light: DIVMTQSPATLSLSPGERATLSCTSSQSVYHANWLSWFQQKPGQPPKLLIYWASTLAYGVPSRFSGSGSGTDFTLTISSLQPEDAATYYCAGGYGGGRYAFGQGTKVEIKRTVAAPSVFIFPPSDEQLKSGTASVVCLLNNFYPREAKVQWKVDNALQSGNSQESVTEQDSKDSTYSLSSTLTLSKADYEKHKVYACEVTHQGLSSPVTKSFNRGEC	2200 nM								
M103205H795-MY143/M103202L889-SK1 (antibody, human IgG1, kappa) heavy: QVTLKESGPVLVKPTETLTLTCTVSGIDLSHDDISWVRQAPGKGLEWVGIISYAGSTYYASWAKGRLTISKDTSKNQVVLTMTNMDPVDTATYYCARGVPAYSHGGDLWGQGTLVTVSSASTKGPSVFPLAPSSKSTSGGTAALGCLVKDYFPEPVTVSWNSGALTSGVHTFPAVLQSSGLYSLSSVVTVPSSSLGTQTYICNVNHKPSNTKVDKKVEPKSCDKTHTCPPCPAPELLSGPSVFLFPPKPKDTLMISRTPEVTCVVVDVSEEDPEVKFNWYVDGVEVHNAKTKPREEQYNSTYRVVSVLTVLHQDWLNGKEYKCKVSNKALPAPIEKTISKAKGQPREPQVYTLPPSREEMTKNQVSLTCLVKGFYPSDIAVEWESNGQPENNYKTTPMVLDSDGSFFLYSKLTVDKSRWQQGNVFSCSVMHEALHNHYTQKSLSLSP light: DIVMTQSPATLSLSPGERATLSCTSSQSVYHANWLSWFQQKPGQPPKLLIYWASTLAYGVPSRFSGSGSGTDFTLTISSLQPEDAATYYCAGGYGGGRYAFGQGTKVEIKRTVAAPSVFIFPPSDEQLKSGTASVVCLLNNFYPREAKVQWKVDNALQSGNSQESVTEQDSKDSTYSLSSTLTLSKADYEKHKVYACEVTHQGLSSPVTKSFNRGEC		13.3 fold	3.9 fold	1.29 fold	8.9 fold	6.3 fold	18.6 fold	0.52 fold	2.9 fold
M103205H795-MY142/M103202L889-SK1 (antibody, human IgG1, kappa) heavy: QVTLKESGPVLVKPTETLTLTCTVSGIDLSHDDISWVRQAPGKGLEWVGIISYAGSTYYASWAKGRLTISKDTSKNQVVLTMTNMDPVDTATYYCARGVPAYSHGGDLWGQGTLVTVSSASTKGPSVFPLAPSSKSTSGGTAALGCLVKDYFPEPVTVSWNSGALTSGVHTFPAVLQSSGLYSLSSVVTVPSSSLGTQTYICNVNHKPSNTKVDKKVEPKSCDKTHTCPPCPAPELLEGPSVFLFPPKPKDTLMISRTPEVTCVVVDVSEEDPEVKFNWYVDGVEVHNAKTKPREEQYNSTYRVVSVLTVLHQDWLNGKEYKCKVSNKALPAPIEKTISKAKGQPREPQVYTLPPSREEMTKNQVSLTCLVKGFYPSDIAVEWESNGQPENNYKTTPMVLDSDGSFFLYSKLTVDKSRWQQGNVFSCSVMHEALHNHYTQKSLSLSP light: DIVMTQSPATLSLSPGERATLSCTSSQSVYHANWLSWFQQKPGQPPKLLIYWASTLAYGVPSRFSGSGSGTDFTLTISSLQPEDAATYYCAGGYGGGRYAFGQGTKVEIKRTVAAPSVFIFPPSDEQLKSGTASVVCLLNNFYPREAKVQWKVDNALQSGNSQESVTEQDSKDSTYSLSSTLTLSKADYEKHKVYACEVTHQGLSSPVTKSFNRGEC		6.5 fold	1 fold	2.57 fold	1 fold	4.8 fold	3.6 fold	1.4 fold	0.8 fold
